1 protein from paper PMC11257031 (Archives of biochemistry and biophysics, 2023) can be followed below.

This data set deals with the molecule itself. Nature of the data set: SEC. (In general: SEC sorts molecules by how far they enter the pores of the column.)

B1: Zymomonas mobilis pyruvate kinase (enzyme, UniProt O86020 1-475, looked up)
chain: MTEGLFPRGRKVRVVSTLGPASSTAEQIRDRFLAGADVFRINMSHGTHDEKKVIVDNIRALEKEFNRPTTILFDLQGPKLRVGDFKEGKVQLKEGQTFTFDQDPTLGDETRVNLPHPEIFKALDKGHRLLLDDGKIVVRCVESSPTKIVTRVEVPGPLSDHKGFNVPDVVIPLAALTPKDRKDLDFALKEKADWVALSFVQRVEDVIEAKELIKGRAPLLVKLEKPAAIENLESILAATDAVMVARGDLGVECLPESVPPTQKRIVERSRQLGKPVVVATAMLESMIKAPAPTRAEVSDVANAIYEGADGIMLSAESAAGDWPHEAVNMMHRIASYVENAPGYIERVRFTPTPAEPTTVDALAENASKTAETVGAKAIIVFTETGKTAQRVSRARPVAPILSLTPDAEVARRLGLVWGAQPVQVSTVKTLDEAKKLAAETAKKYGFAKAGDKLVVVAGEPFGKAGTTNIVDVIEA
In general, stoichiometry N refers to a count of units in the complex or per binding partner. Regarding B1, the “stoichiometry N” value is 2.
